Data taken from PMC6784111.

Assays:
Assay in all cases: SPR; 40 RU of each antibody immobilized on a CM5 chip; oxMIF (MIF treated with 0.2% Proclin300) injected at 3–25 nM in HBS-EP (HEPES 10 mM, NaCl 150 mM, EDTA 3 mM, 0.005% Tween-20); BIAcore T200; 25 °C; 1:1 Langmuir model
[1] = target: BaxM159 variant 1-DIQMAQ (parental anti-oxMIF antibody without the heavy chain C-terminal lysine)
[2] = target: BaxM159 variant 2-DIQMAQ-K (parental anti-oxMIF antibody with the heavy chain C-terminal lysine)
BaxM159 variant 3-EIVLAQ = target: BaxM159 variant 3-EIVLAQ
BaxM159 variant 4-DIQMGQ = target: BaxM159 variant 4-DIQMGQ
BaxM159 variant 5-DIQMAE = target: BaxM159 variant 5-DIQMAE
BaxM159 variant 6-EIVLGQ = target: BaxM159 variant 6-EIVLGQ
BaxM159 variant 7-EIVLAE = target: BaxM159 variant 7-EIVLAE
BaxM159 variant 8-DIQMGE = target: BaxM159 variant 8-DIQMGE
BaxM159 variant 9-EIVLGE = target: BaxM159 variant 9-EIVLGE

B1: oxidized macrophage migration inhibitory factor (oxMIF) (natural protein)
chain: MPMFIVNTNVPRASVPDGFLSELTQQLAQATGKPPQYIAVHVVPDQLMAFGGSSEPCALCSLHSIGKIGGAQNRSYSKLLCGLLAERLRISPDRVYINYYDMNAANVGWNNSTFA
modifications: converted to its oxidized form by treatment with 0.2% Proclin300
Kd [1]: 2.6 nM | koff [1]: 0.00029 s⁻¹ | kon [1]: 110000 M⁻¹ s⁻¹ | Kd [2]: 3 nM | koff [2]: 0.00038 s⁻¹ | kon [2]: 130000 M⁻¹ s⁻¹ | Kd (BaxM159 variant 3-EIVLAQ): 1.5 nM | koff (BaxM159 variant 3-EIVLAQ): 0.00031 s⁻¹ | kon (BaxM159 variant 3-EIVLAQ): 200000 M⁻¹ s⁻¹ | Kd (BaxM159 variant 4-DIQMGQ): 4.3 nM | koff (BaxM159 variant 4-DIQMGQ): 0.00056 s⁻¹ | kon (BaxM159 variant 4-DIQMGQ): 160000 M⁻¹ s⁻¹ | Kd (BaxM159 variant 5-DIQMAE): 2.5 nM | koff (BaxM159 variant 5-DIQMAE): 0.0004 s⁻¹ | kon (BaxM159 variant 5-DIQMAE): 160000 M⁻¹ s⁻¹ | Kd (BaxM159 variant 6-EIVLGQ): 2.7 nM | koff (BaxM159 variant 6-EIVLGQ): 0.00064 s⁻¹ | kon (BaxM159 variant 6-EIVLGQ): 260000 M⁻¹ s⁻¹ | Kd (BaxM159 variant 7-EIVLAE): 2.4 nM | koff (BaxM159 variant 7-EIVLAE): 0.00044 s⁻¹ | kon (BaxM159 variant 7-EIVLAE): 180000 M⁻¹ s⁻¹ | Kd (BaxM159 variant 8-DIQMGE): 4.2 nM | koff (BaxM159 variant 8-DIQMGE): 0.00054 s⁻¹ | kon (BaxM159 variant 8-DIQMGE): 130000 M⁻¹ s⁻¹ | Kd (BaxM159 variant 9-EIVLGE): 1.4 nM | koff (BaxM159 variant 9-EIVLGE): 0.00044 s⁻¹ | kon (BaxM159 variant 9-EIVLGE): 310000 M⁻¹ s⁻¹
